Test results as given in patent publication US8314210B2, “Compositions and methods for the generation of MHC class II compounds by peptide exchange” (priority 2002, dated 2012).
Peptide text beside a SMILES is read from it. * marks the point of attachment. Dnp = O=[N+]([O-])c1ccc(*)c([N+](=O)[O-])c1; Ahx = NCCCCCC(=O)O

What was measured:
Assay type in all cases: binding
[1] = biological target: T1, HLA-DR4 (DRA, DRB1*0401) (Homo sapiens, UniProt P01903+P01911, A100K/A169T/F76Y/I96L/K127E/L162R/M171V/N62H/P40V/Q125Y/R42H/S133A/S149N/S66Y/V115G/V209L/W38E); test: biochemical; details: Table 2, DRB1*0401, read-out: (μM) [head prints unit only
T1 construct: were attached to the 3′ end of the DRα and DRβ ectodomains; CLIP peptide […]; made in house

[2] = biological target: T2, DRB1*0401 (Homo sapiens, UniProt P01903+P01911, A100K/A169T/F76Y/I96L/K127E/L162R/M171V/N62H/P40V/Q125Y/R42H/S133A/S149N/S66Y/V115G/V209L/W38E); details: 3.3 μM *DR/CLIP, 50 μM DNP-labeled peptide, pH 5.2, overnight 30° C.
T2 construct: were attached to the 3′ end of the DRα and DRβ ectodomains; CLIP peptide […]; made in house

[3] = biological target: T3, DR4 (Homo sapiens, UniProt P01903+P01911, A100K/A169T/F76Y/I96L/K127E/L162R/M171V/N62H/P40V/Q125Y/R42H/S133A/S149N/S66Y/V115G/V209L/W38E); test: Kinetics of CLIP dissociation and peptide association; details: DR4, pH 5.2
T3 construct: CLIP peptide […]; made in house

[4] = biological target: T4, DR4 (DRA, DRB1*0401) (Homo sapiens, UniProt P01903+P01911, A100K/A169T/F76Y/I96L/K127E/L162R/M171V/N62H/P40V/Q125Y/R42H/S133A/S149N/S66Y/V115G/V209L/W38E); test: Competition assay of HCV peptides, biotinylated HA (306-318) on thrombin-cleaved DR4/CLIP; details: competitor 30 nM to 10 μM vs 30 nM labeled HA peptide
T4 construct: were attached to the 3′ end of the DRα and DRβ ectodomains; CLIP peptide […]; made in house

CC[C@H](C)[C@H](NC(=O)[C@H](CC(N)=O)NC(=O)[C@H](CCCCN)NC(=O)[C@H](Cc1ccccc1)NC(=O)[C@H](Cc1ccccc1)NC(=O)[C@H](Cc1c[nH]cn1)NC(=O)[C@@H](NC(=O)[C@@H](NC(=O)CCCCCNc1ccc([N+](=O)[O-])cc1[N+](=O)[O-])C(C)C)C(C)C)C(=O)N[C@H](C(=O)N[C@H](C(=O)N1CCC[C@H]1C(=O)N[C@@H](CCCNC(=N)N)C(=O)N[C@H](C(=O)N1CCC[C@H]1C(=O)N1CCC[C@H]1C(=O)O)[C@@H](C)O)[C@@H](C)O)C(C)C [MBP(88-102)] ({Dnp-Ahx}-VVHFFKNIVTPRTPP-OH)
IC50 [1]: 0.3 µM

CC[C@H](C)[C@H](NC(=O)[C@H](CCC(N)=O)NC(=O)[C@H](CCC(=O)O)NC(=O)CCCCCNc1ccc([N+](=O)[O-])cc1[N+](=O)[O-])C(=O)NCC(=O)N[C@@H](Cc1c[nH]c2ccccc12)C(=O)N[C@@H](CCSC)C(=O)N[C@H](C(=O)N[C@@H](CC(N)=O)C(=O)N[C@@H](CC(N)=O)C(=O)N1CCC[C@H]1C(=O)N1CCC[C@H]1C(=O)N[C@H](C(=O)N1CCC[C@H]1C(=O)N[C@H](C(=O)NCC(=O)O)C(C)C)[C@@H](C)CC)[C@@H](C)O [p24 (113-127)] ({Dnp-Ahx}-EQIGWMTNNPPIPVG-OH; C-terminus assumed)
Loading Efficiency (%) [2]: 79%

CC[C@H](C)[C@H](NC(=O)[C@H](CO)NC(=O)[C@@H](NC(=O)[C@@H]1CCCN1C(=O)[C@H](CO)NC(=O)[C@H](Cc1ccc(O)cc1)NC(=O)[C@H](CCSC)NC(=O)[C@H](CCCNC(=N)N)NC(=O)[C@@H](NC(=O)[C@@H](NC(=O)[C@H](CCCCN)NC(=O)[C@H](CC(N)=O)NC(=O)[C@H](CC(C)C)NC(=O)CCCCCNc1ccc([N+](=O)[O-])cc1[N+](=O)[O-])[C@@H](C)CC)C(C)C)C(C)C)C(=O)O [p24 (138-150)/Val] ({Dnp-Ahx}-LNKIVRMYSPVSI-OH; C-terminus assumed)
Loading Efficiency (%) [2]: 90%

CGGGPVSKMRMATPLLMQA [Alexa-488 labeled CLIP peptide]
time by which almost all of the bound CLIP peptide had dissociated [3]: ≤ 30 min

aa 1241-1260: HCV peptide aa 1241-1260 tested for DR4 binding, printed with SEQ ID NO:19 (GYKVLVLNPSVAATL; listed as Homo sapiens)
binding to DR4 [4]: bound to DR4

aa 1581-1600: HCV peptide aa 1581-1600 tested for DR4 binding, printed with SEQ ID NO:20
binding to DR4 [4]: bound to DR4

aa 1771-1790: HCV peptide aa 1771-1790 tested for DR4 binding, printed with SEQ ID NO:21 (SGIQYLAGLSTLPGNPAIASL; listed as Homo sapiens)
binding to DR4 [4]: bound to DR4
